{
  "source": "paper PMC6053248",
  "about": "“GROWTH-REGULATING FACTOR 9 negatively regulates arabidopsis leaf growth by controlling ORG3 and restricting cell proliferation in leaf primordia”",
  "molecules": {"B1": {"name": "GRFE1m3 (dsDNA)", "DNA 1": "CCGGTACTGGTCTGACAAACCAGAACTTCA", "DNA 2": "TGAAGTTCTGGTTTGTCAGACCAGTACCGG"}, "B2": {"name": "GRFE1m2 (dsDNA)", "DNA 1": "B1 DNA 1 with T11C, A18C", "DNA 2": "B1 DNA 2 with T13G, A20G"}, "B3": {"name": "GRFE1m7 (dsDNA)", "DNA 1": "B1 DNA 1 with C16G, A18T", "DNA 2": "B1 DNA 2 with T13A, G15C"}, "B4": {"name": "GRFE1m4 (dsDNA)", "DNA 1": "B1 DNA 1 with C12G, A18T", "DNA 2": "B1 DNA 2 with T13A, G19C"}, "B5": {"name": "GRFE1m6 (dsDNA)", "DNA 1": "B1 DNA 1 with T13G, A18T", "DNA 2": "B1 DNA 2 with T13A, A18C"}, "B6": {"name": "GRFE1m1 (dsDNA)", "DNA 1": "B1 DNA 1 with T11A, A18C", "DNA 2": "B1 DNA 2 with T13G, A20T"}, "B7": {"name": "GRFE1m5 (dsDNA)", "DNA 1": "B1 DNA 1 with A17T, A18T", "DNA 2": "B1 DNA 2 with T13A, T14A"}, "B8": {"name": "ORG3 EMSA competitor (dsDNA)", "DNA 1": "CTTTCACTTCATACAACCTGACACCAAATCATCCACATCA", "DNA 2": "TGTGGATGATTTGGTGTCAGGTTGTATGAAGTGAAAG"}, "B9": {"name": "ORG3 EMSA mutated competitor (dsDNA)", "DNA 1": "B8 DNA 1 with T19G", "DNA 2": "TGATGTGGATGATTTGGTGTCCGGTTGTATGAAGTGAAAG"}, "B10": {"name": "ORG3 promoter 40-bp EMSA probe (dsDNA)", "DNA 1": "B8 DNA 1", "DNA 2": "B9 DNA 2 with C22A"}},
  "key": {"[1]": {"biological_target": "T1, GRF9-CELD (Arabidopsis thaliana (Col-0?)) (UniProt Q8S9M3)", "T1 sequence": "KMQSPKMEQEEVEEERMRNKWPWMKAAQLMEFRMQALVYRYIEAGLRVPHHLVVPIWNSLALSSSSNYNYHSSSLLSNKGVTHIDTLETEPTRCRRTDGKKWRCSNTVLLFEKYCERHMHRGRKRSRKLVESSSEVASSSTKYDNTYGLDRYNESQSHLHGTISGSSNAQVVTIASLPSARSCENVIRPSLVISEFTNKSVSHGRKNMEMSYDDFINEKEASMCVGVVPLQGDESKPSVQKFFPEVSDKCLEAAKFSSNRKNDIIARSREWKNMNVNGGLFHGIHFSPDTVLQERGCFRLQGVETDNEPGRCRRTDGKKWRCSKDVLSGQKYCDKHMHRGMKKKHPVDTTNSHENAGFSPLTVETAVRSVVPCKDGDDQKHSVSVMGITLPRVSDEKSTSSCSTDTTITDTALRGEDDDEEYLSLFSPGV", "assay": "CELD plate binding assay (streptavidin plate)", "conditions": "CELD plate assay: 25 mM HEPES/KOH pH 7.0, 50 mM KCl, 0.5 mM DTT, 10 uM ZnCl2, 0.15 ug/ul herring sperm DNA, 0.3 mg/ml BSA, 10% glycerol, 0.025% NP-40, 2 pmol …"}, "GRF9-CELD [2]": {"biological_target": "T2, GRF9-CELD (Arabidopsis thaliana, UniProt Q8S9M3 2-431)", "T2 sequence": "T1 sequence", "assay": "CELD plate binding assay (streptavidin plate); 10 uM ZnCl2; CELD plate assay: 25 mM HEPES/KOH pH 7.0, 50 mM KCl, 0.5 mM DTT, 10 uM ZnCl2, 0.15 ug/ul herring sperm DNA, 0.3 mg/ml BSA, 10% glycerol, 0.025% NP-40, 2 pmol probe; binding temperature not stated; EMSA buffer not given (cited protocols)", "conditions": "protein: recombinant; tags: C-terminal CELD (cellulase D) fusion, 6xHis; label: biotin"}, "GRF9-CELD [3]": {"biological_target": "T2, GRF9-CELD", "assay": "competition; molar excess vs labelled N10; CELD plate assay: 25 mM HEPES/KOH pH 7.0, 50 mM KCl, 0.5 mM DTT, 10 uM ZnCl2, 0.15 ug/ul herring sperm DNA, 0.3 mg/ml BSA, 10% glycerol, 0.025% NP-40, 2 pmol probe; binding temperature not stated; EMSA buffer not given (cited protocols)", "conditions": "protein: recombinant, tags: C-terminal CELD (cellulase D) fusion, 6xHis, label: none"}, "GRF9-CELD [4]": {"biological_target": "T2, GRF9-CELD", "assay": "EMSA; CELD plate assay: 25 mM HEPES/KOH pH 7.0, 50 mM KCl, 0.5 mM DTT, 10 uM ZnCl2, 0.15 ug/ul herring sperm DNA, 0.3 mg/ml BSA, 10% glycerol, 0.025% NP-40, 2 pmol probe; binding temperature not stated; EMSA buffer not given (cited protocols)", "conditions": "protein: recombinant; tags: C-terminal CELD (cellulase D) fusion, 6xHis; label: 5'-DY682; blunt"}},
  "note": "Changes are numbered by the printed parent chain.",
  "data": [
    {"molecule": "AGGTAAGTTACTGACACACTCCATTCTTGG (double strand) [GRFE15]", "values": [
      {"measurement": "binding signal (relative to GRFE1)", "setting": "[1]", "value": 0.8}
    ]},
    {"molecule": "CCGGTACTGGTCTGACATACCAGAACTTCA (double strand) [GRFE1]", "values": [
      {"measurement": "binding signal (relative to GRFE1)", "setting": "[1]", "value": 1}
    ]},
    {"molecule": "B1", "values": [
      {"measurement": "binding signal", "setting": "GRF9-CELD [2]", "value": "0.89 ± 0.08 relative to GRFE1"}
    ]},
    {"molecule": "B2", "values": [
      {"measurement": "binding signal", "setting": "GRF9-CELD [2]", "value": "0.43 ± 0.04 relative to GRFE1"}
    ]},
    {"molecule": "B3", "values": [
      {"measurement": "binding signal", "setting": "GRF9-CELD [2]", "value": "0 relative to GRFE1"}
    ]},
    {"molecule": "B4", "values": [
      {"measurement": "binding signal", "setting": "GRF9-CELD [2]", "value": "0 relative to GRFE1"}
    ]},
    {"molecule": "B5", "values": [
      {"measurement": "binding signal", "setting": "GRF9-CELD [2]", "value": "0 relative to GRFE1"}
    ]},
    {"molecule": "B6", "values": [
      {"measurement": "binding signal", "setting": "GRF9-CELD [2]", "value": "0.79 ± 0.03 relative to GRFE1"}
    ]},
    {"molecule": "B7", "values": [
      {"measurement": "binding signal", "setting": "GRF9-CELD [2]", "value": "0 relative to GRFE1"}
    ]},
    {"molecule": "B8", "values": [
      {"measurement": "binding result", "setting": "GRF9-CELD [3]; 3' overhang 3 nt on strand 1 (so in the source)", "value": "binds"}
    ]},
    {"molecule": "B9", "values": [
      {"measurement": "binding result", "setting": "GRF9-CELD [3]; blunt", "value": "no binding"}
    ]},
    {"molecule": "B10", "values": [
      {"measurement": "binding result", "setting": "GRF9-CELD [4]", "value": "binds"}
    ]}
  ]
}
